According to paper PMC5836512 (Molecular cell, 2018):
Where two headings read alike, the source gives them in different places.

How the values were obtained:
[1] = target: T1, Cul1•^GSTRbx1 (UniProt Q13616 1-776; P62877 1-108); test: pull-down
[2] = target: T1, Cul1•^GSTRbx1; test: pull-down; remark: listed apart in the source
[3] = target: T1, Cul1•^GSTRbx1; test: pull-down; remark: listed apart in the source
[4] = target: T2, Cul1^AMC•Rbx1 (UniProt Q13616 1-776; P62877 1-108, AMC on the C-terminus (GGGG^AMC peptide joined by sortase)); test: FRET or BRET
[5] = target: T2, Cul1^AMC•Rbx1; test: FRET or BRET; remark: listed apart in the source

T1 sequence (Q13616 whole entry, chain 1 of 2): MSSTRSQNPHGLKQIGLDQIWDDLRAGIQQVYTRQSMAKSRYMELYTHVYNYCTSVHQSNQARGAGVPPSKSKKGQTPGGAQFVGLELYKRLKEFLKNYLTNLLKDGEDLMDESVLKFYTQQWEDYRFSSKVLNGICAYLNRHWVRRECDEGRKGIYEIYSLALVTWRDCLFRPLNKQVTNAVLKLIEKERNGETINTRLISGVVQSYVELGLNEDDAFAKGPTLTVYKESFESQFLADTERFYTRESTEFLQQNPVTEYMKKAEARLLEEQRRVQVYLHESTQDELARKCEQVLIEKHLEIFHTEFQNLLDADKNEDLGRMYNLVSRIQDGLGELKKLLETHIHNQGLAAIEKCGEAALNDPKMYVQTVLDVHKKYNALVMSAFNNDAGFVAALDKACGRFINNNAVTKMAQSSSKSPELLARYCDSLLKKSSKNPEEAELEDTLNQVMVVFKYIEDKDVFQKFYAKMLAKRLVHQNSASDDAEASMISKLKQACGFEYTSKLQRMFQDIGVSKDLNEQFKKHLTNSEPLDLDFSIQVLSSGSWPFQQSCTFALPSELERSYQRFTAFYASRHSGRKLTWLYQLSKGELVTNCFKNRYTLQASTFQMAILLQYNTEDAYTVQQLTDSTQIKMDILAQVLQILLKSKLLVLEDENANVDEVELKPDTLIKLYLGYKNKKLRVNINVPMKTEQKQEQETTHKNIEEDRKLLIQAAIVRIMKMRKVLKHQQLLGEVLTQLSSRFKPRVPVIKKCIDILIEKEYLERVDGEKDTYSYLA
T1 sequence (P62877 whole entry, chain 2 of 2): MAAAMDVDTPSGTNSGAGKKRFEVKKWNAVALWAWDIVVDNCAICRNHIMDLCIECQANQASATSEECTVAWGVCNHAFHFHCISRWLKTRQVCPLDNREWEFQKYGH
T2 sequence (Q13616 whole entry, chain 1 of 2): as the sequence (Q13616 whole entry, chain 1 of 2) above
T2 sequence (P62877 whole entry, chain 2 of 2): as the sequence (P62877 whole entry, chain 2 of 2) above

B1: Cand1^1-603 (domain or fragment, UniProt Q86VP6 1-603, looked up)
chain: MASASYHISNLLEKMTSSDKDFRFMATNDLMTELQKDSIKLDDDSERKVVKMILKLLEDKNGEVQNLAVKCLGPLVSKVKEYQVETIVDTLCTNMLSDKEQLRDISSIGLKTVIGELPPASSGSALAANVCKKITGRLTSAIAKQEDVSVQLEALDIMADMLSRQGGLLVNFHPSILTCLLPQLTSPRLAVRKRTIIALGHLVMSCGNIVFVDLIEHLLSELSKNDSMSTTRTYIQCIAAISRQAGHRIGEYLEKIIPLVVKFCNVDDDELREYCIQAFESFVRRCPKEVYPHVSTIINICLKYLTYDPNYNYDDEDEDENAMDADGGDDDDQGSDDEYSDDDDMSWKVRRAAAKCLDAVVSTRHEMLPEFYKTVSPALISRFKEREENVKADVFHAYLSLLKQTRPVQSWLCDPDAMEQGETPLTMLQSQVPNIVKALHKQMKEKSVKTRQCCFNMLTELVNVLPGALTQHIPVLVPGIIFSLNDKSSSSNLKIDALSCLYVILCNHSPQVFHPHVQALVPPVVACVGDPFYKITSEALLVTQQLVKVIRPLDQPSSFDATPYIKDLFTCTIKRLKAADIDQEVKERAISCMGQIICNLGDN
B1: binds [1].

B2: Cand1 (natural protein, UniProt Q86VP6 1-1230, looked up)
chain: MASASYHISNLLEKMTSSDKDFRFMATNDLMTELQKDSIKLDDDSERKVVKMILKLLEDKNGEVQNLAVKCLGPLVSKVKEYQVETIVDTLCTNMLSDKEQLRDISSIGLKTVIGELPPASSGSALAANVCKKITGRLTSAIAKQEDVSVQLEALDIMADMLSRQGGLLVNFHPSILTCLLPQLTSPRLAVRKRTIIALGHLVMSCGNIVFVDLIEHLLSELSKNDSMSTTRTYIQCIAAISRQAGHRIGEYLEKIIPLVVKFCNVDDDELREYCIQAFESFVRRCPKEVYPHVSTIINICLKYLTYDPNYNYDDEDEDENAMDADGGDDDDQGSDDEYSDDDDMSWKVRRAAAKCLDAVVSTRHEMLPEFYKTVSPALISRFKEREENVKADVFHAYLSLLKQTRPVQSWLCDPDAMEQGETPLTMLQSQVPNIVKALHKQMKEKSVKTRQCCFNMLTELVNVLPGALTQHIPVLVPGIIFSLNDKSSSSNLKIDALSCLYVILCNHSPQVFHPHVQALVPPVVACVGDPFYKITSEALLVTQQLVKVIRPLDQPSSFDATPYIKDLFTCTIKRLKAADIDQEVKERAISCMGQIICNLGDNLGSDLPNTLQIFLERLKNEITRLTTVKALTLIAGSPLKIDLRPVLGEGVPILASFLRKNQRALKLGTLSALDILIKNYSDSLTAAMIDAVLDELPPLISESDMHVSQMAISFLTTLAKVYPSSLSKISGSILNELIGLVRSPLLQGGALSAMLDFFQALVVTGTNNLGYMDLLRMLTGPVYSQSTALTHKQSYYSIAKCVAALTRACPKEGPAVVGQFIQDVKNSRSTDSIRLLALLSLGEVGHHIDLSGQLELKSVILEAFSSPSEEVKSAASYALGSISVGNLPEYLPFVLQEITSQPKRQYLLLHSLKEIISSASVVGLKPYVENIWALLLKHCECAEEGTRNVVAECLGKLTLIDPETLLPRLKGYLISGSSYARSSVVTAVKFTISDHPQPIDPLLKNCIGDFLKTLEDPDLNVRRVALVTFNSAAHNKPSLIRDLLDTVLPHLYNETKVRKELIREVEMGPFKHTVDDGLDIRKAAFECMYTLLDSCLDRLDIFEFLNHVEDGLKDHYDIKMLTFLMLVRLSTLCPSAVLQRLDRLVEPLRATCTTKVKANSVKQEFEKQDELKRSAMRAVAALLTIPEAEKSPLMSEFQSQISSNPELAAIFESIQKDSSSTNLESMDTS
B2: binds [2].

B3: ^ΔH1Cand1 (domain or fragment, UniProt Q86VP6 15-1230, looked up)
chain: MTSSDKDFRFMATNDLMTELQKDSIKLDDDSERKVVKMILKLLEDKNGEVQNLAVKCLGPLVSKVKEYQVETIVDTLCTNMLSDKEQLRDISSIGLKTVIGELPPASSGSALAANVCKKITGRLTSAIAKQEDVSVQLEALDIMADMLSRQGGLLVNFHPSILTCLLPQLTSPRLAVRKRTIIALGHLVMSCGNIVFVDLIEHLLSELSKNDSMSTTRTYIQCIAAISRQAGHRIGEYLEKIIPLVVKFCNVDDDELREYCIQAFESFVRRCPKEVYPHVSTIINICLKYLTYDPNYNYDDEDEDENAMDADGGDDDDQGSDDEYSDDDDMSWKVRRAAAKCLDAVVSTRHEMLPEFYKTVSPALISRFKEREENVKADVFHAYLSLLKQTRPVQSWLCDPDAMEQGETPLTMLQSQVPNIVKALHKQMKEKSVKTRQCCFNMLTELVNVLPGALTQHIPVLVPGIIFSLNDKSSSSNLKIDALSCLYVILCNHSPQVFHPHVQALVPPVVACVGDPFYKITSEALLVTQQLVKVIRPLDQPSSFDATPYIKDLFTCTIKRLKAADIDQEVKERAISCMGQIICNLGDNLGSDLPNTLQIFLERLKNEITRLTTVKALTLIAGSPLKIDLRPVLGEGVPILASFLRKNQRALKLGTLSALDILIKNYSDSLTAAMIDAVLDELPPLISESDMHVSQMAISFLTTLAKVYPSSLSKISGSILNELIGLVRSPLLQGGALSAMLDFFQALVVTGTNNLGYMDLLRMLTGPVYSQSTALTHKQSYYSIAKCVAALTRACPKEGPAVVGQFIQDVKNSRSTDSIRLLALLSLGEVGHHIDLSGQLELKSVILEAFSSPSEEVKSAASYALGSISVGNLPEYLPFVLQEITSQPKRQYLLLHSLKEIISSASVVGLKPYVENIWALLLKHCECAEEGTRNVVAECLGKLTLIDPETLLPRLKGYLISGSSYARSSVVTAVKFTISDHPQPIDPLLKNCIGDFLKTLEDPDLNVRRVALVTFNSAAHNKPSLIRDLLDTVLPHLYNETKVRKELIREVEMGPFKHTVDDGLDIRKAAFECMYTLLDSCLDRLDIFEFLNHVEDGLKDHYDIKMLTFLMLVRLSTLCPSAVLQRLDRLVEPLRATCTTKVKANSVKQEFEKQDELKRSAMRAVAALLTIPEAEKSPLMSEFQSQISSNPELAAIFESIQKDSSSTNLESMDTS
In the case of B3, the “fold increase of KD over WT Cand1” value [3] is reported as ~4.5 fold and the “fold of koff (fast phase) over WT Cand1” value [4] is reported as 21 fold.

B4: ^FlAsHΔH1Cand1 (domain or fragment, UniProt Q86VP6 15-1230, looked up)
chain: MTSSDKDFRFMATNDLMTELQKDSIKLDDDSERKVVKMILKLLEDKNGEVQNLAVKCLGPLVSKVKEYQVETIVDTLCTNMLSDKEQLRDISSIGLKTVIGELPPASSGSALAANVCKKITGRLTSAIAKQEDVSVQLEALDIMADMLSRQGGLLVNFHPSILTCLLPQLTSPRLAVRKRTIIALGHLVMSCGNIVFVDLIEHLLSELSKNDSMSTTRTYIQCIAAISRQAGHRIGEYLEKIIPLVVKFCNVDDDELREYCIQAFESFVRRCPKEVYPHVSTIINICLKYLTYDPNYNYDDEDEDENAMDADGGDDDDQGSDDEYSDDDDMSWKVRRAAAKCLDAVVSTRHEMLPEFYKTVSPALISRFKEREENVKADVFHAYLSLLKQTRPVQSWLCDPDAMEQGETPLTMLQSQVPNIVKALHKQMKEKSVKTRQCCFNMLTELVNVLPGALTQHIPVLVPGIIFSLNDKSSSSNLKIDALSCLYVILCNHSPQVFHPHVQALVPPVVACVGDPFYKITSEALLVTQQLVKVIRPLDQPSSFDATPYIKDLFTCTIKRLKAADIDQEVKERAISCMGQIICNLGDNLGSDLPNTLQIFLERLKNEITRLTTVKALTLIAGSPLKIDLRPVLGEGVPILASFLRKNQRALKLGTLSALDILIKNYSDSLTAAMIDAVLDELPPLISESDMHVSQMAISFLTTLAKVYPSSLSKISGSILNELIGLVRSPLLQGGALSAMLDFFQALVVTGTNNLGYMDLLRMLTGPVYSQSTALTHKQSYYSIAKCVAALTRACPKEGPAVVGQFIQDVKNSRSTDSIRLLALLSLGEVGHHIDLSGQLELKSVILEAFSSPSEEVKSAASYALGSISVGNLPEYLPFVLQEITSQPKRQYLLLHSLKEIISSASVVGLKPYVENIWALLLKHCECAEEGTRNVVAECLGKLTLIDPETLLPRLKGYLISGSSYARSSVVTAVKFTISDHPQPIDPLLKNCIGDFLKTLEDPDLNVRRVALVTFNSAAHNKPSLIRDLLDTVLPHLYNETKVRKELIREVEMGPFKHTVDDGLDIRKAAFECMYTLLDSCLDRLDIFEFLNHVEDGLKDHYDIKMLTFLMLVRLSTLCPSAVLQRLDRLVEPLRATCTTKVKANSVKQEFEKQDELKRSAMRAVAALLTIPEAEKSPLMSEFQSQISSNPELAAIFESIQKDSSSTNLESMDTS
modifications: FlAsH (Lumio Green) on the N-terminal tetracysteine tag
For B4, the Kd [5] was 0.7 pM.
